Test results from article PMC6182161 (Nucleic Acids Research, 2018).
Positions count from the first letter of the chain named. Each block holds one binder with its values, some of them ahead of it.

Legend:
purified Flag-NAT10 = target: T1, purified Flag-NAT10 (UniProt Q9H0A0 1-1025); assay: pull-down
T1 sequence (looked up): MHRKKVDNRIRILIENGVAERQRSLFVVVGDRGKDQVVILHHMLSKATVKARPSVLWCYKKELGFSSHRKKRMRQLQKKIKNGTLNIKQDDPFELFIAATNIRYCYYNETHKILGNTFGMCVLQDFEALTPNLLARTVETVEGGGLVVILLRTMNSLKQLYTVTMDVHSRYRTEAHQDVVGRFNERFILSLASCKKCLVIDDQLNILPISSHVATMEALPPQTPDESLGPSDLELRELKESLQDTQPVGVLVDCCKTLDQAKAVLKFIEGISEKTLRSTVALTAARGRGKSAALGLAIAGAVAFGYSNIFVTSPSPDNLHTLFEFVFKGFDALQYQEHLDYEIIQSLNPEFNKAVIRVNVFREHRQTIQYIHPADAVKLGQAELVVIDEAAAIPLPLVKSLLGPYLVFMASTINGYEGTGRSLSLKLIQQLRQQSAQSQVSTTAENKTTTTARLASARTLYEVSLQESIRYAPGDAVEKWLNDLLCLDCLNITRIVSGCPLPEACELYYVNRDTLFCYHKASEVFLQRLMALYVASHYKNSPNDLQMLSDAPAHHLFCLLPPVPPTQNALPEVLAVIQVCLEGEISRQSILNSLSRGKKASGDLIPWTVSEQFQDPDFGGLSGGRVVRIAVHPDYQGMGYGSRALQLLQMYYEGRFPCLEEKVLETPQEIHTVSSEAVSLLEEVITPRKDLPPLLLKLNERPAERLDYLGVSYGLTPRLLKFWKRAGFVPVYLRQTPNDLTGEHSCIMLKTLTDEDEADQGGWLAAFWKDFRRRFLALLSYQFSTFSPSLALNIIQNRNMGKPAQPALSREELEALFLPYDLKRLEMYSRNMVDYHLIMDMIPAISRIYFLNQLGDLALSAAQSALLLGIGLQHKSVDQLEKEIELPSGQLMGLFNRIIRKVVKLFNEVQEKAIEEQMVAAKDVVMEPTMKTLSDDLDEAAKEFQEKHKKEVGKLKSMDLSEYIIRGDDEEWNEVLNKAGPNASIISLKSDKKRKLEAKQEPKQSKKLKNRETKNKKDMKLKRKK

Flag-NAT10 GE = target: T2, Flag-NAT10 GE (UniProt Q9H0A0 1-1025, G641E); assay: pull-down
T2 sequence (looked up): T1 sequence (looked up) with G641E

B1: GST-Che-1 (natural protein, UniProt Q9NY61 1-560, looked up)
chain: MAGPQPLALQLEQLLNPRPSEADPEADPEEATAARVIDRFDEGEDGEGDFLVVGSIRKLASASLLDTDKRYCGKTTSRKAWNEDHWEQTLPGSSDEEISDEEGSGDEDSEGLGLEEYDEDDLGAAEEQECGDHRESKKSRSHSAKTPGFSVQSISDFEKFTKGMDDLGSSEEEEDEESGMEEGDDAEDSQGESEEDRAGDRNSEDDGVVMTFSSVKVSEEVEKGRAVKNQIALWDQLLEGRIKLQKALLTTNQLPQPDVFPLFKDKGGPEFSSALKNSHKALKALLRSLVGLQEELLFQYPDTRYLVDGTKPNAGSEEISSEDDELVEEKKQQRRRVPAKRKLEMEDYPSFMAKRFADFTVYRNRTLQKWHDKTKLASGKLGKGFGAFERSILTQIDHILMDKERLLRRTQTKRSVYRVLGKPEPAAQPVPESLPGEPEILPQAPANAHLKDLDEEIFDDDDFYHQLLRELIERKTSSLDPNDQVAMGRQWLAIQKLRSKIHKKVDRKASKGRKLRFHVLSKLLSFMAPIDHTTMNDDARTELYRSLFGQLHPPDEGHGD
- binding result (purified Flag-NAT10): binds
- binding result (Flag-NAT10 GE): binds

B2: GST-Che-1-M (domain or fragment, UniProt Q9NY61 125-246, looked up)
chain: AEEQECGDHRESKKSRSHSAKTPGFSVQSISDFEKFTKGMDDLGSSEEEEDEESGMEEGDDAEDSQGESEEDRAGDRNSEDDGVVMTFSSVKVSEEVEKGRAVKNQIALWDQLLEGRIKLQK
- binding result (purified Flag-NAT10): binds

Other lines, results leading:

- binding result (purified Flag-NAT10): binds
B3: GST-Che-1-N (domain or fragment, UniProt Q9NY61 1-124, looked up)
chain: MAGPQPLALQLEQLLNPRPSEADPEADPEEATAARVIDRFDEGEDGEGDFLVVGSIRKLASASLLDTDKRYCGKTTSRKAWNEDHWEQTLPGSSDEEISDEEGSGDEDSEGLGLEEYDEDDLGA

- binding result (purified Flag-NAT10): binds
B4: GST-Sirt1 (enzyme, UniProt Q96EB6 1-747, looked up)
chain: MADEAALALQPGGSPSAAGADREAASSPAGEPLRKRPRRDGPGLERSPGEPGGAAPEREVPAAARGCPGAAAAALWREAEAEAAAAGGEQEAQATAAAGEGDNGPGLQGPSREPPLADNLYDEDDDDEGEEEEEAAAAAIGYRDNLLFGDEIITNGFHSCESDEEDRASHASSSDWTPRPRIGPYTFVQQHLMIGTDPRTILKDLLPETIPPPELDDMTLWQIVINILSEPPKRKKRKDINTIEDAVKLLQECKKIIVLTGAGVSVSCGIPDFRSRDGIYARLAVDFPDLPDPQAMFDIEYFRKDPRPFFKFAKEIYPGQFQPSLCHKFIALSDKEGKLLRNYTQNIDTLEQVAGIQRIIQCHGSFATASCLICKYKVDCEAVRGDIFNQVVPRCPRCPADEPLAIMKPEIVFFGENLPEQFHRAMKYDKDEVDLLIVIGSSLKVRPVALIPSSIPHEVPQILINREPLPHLHFDVELLGDCDVIINELCHRLGGEYAKLCCNPVKLSEITEKPPRTQKELAYLSELPPTPLHVSEDSSSPERTSPPDSSVIVTLLDQAAKSNDDLDVSESKGCMEEKPQEVQTSRNVESIAEQMENPDLKNVGSSTGEKNERTSVAGTVRKCWPNRVAKEQISRRLDGNQYLFLPPNRYIFHGAEVYSDSEDDVLSSSSCGSNSDSGTCQSPSLEEPMEDESEIEEFYNGLEDEPDVPERAGGAGFGTDGDDQEAINEAISVKQEVTDMNYPSNKS
